This note sets out measurements from publication PMC4031664.

Holding throughout (assay): SPR
A general note: SPR reads the build-up and loss of mass on a sensor chip optically.

Experiment [1] has as its target N-terminally truncated PrP (PrP89–230) (mouse) (UniProt P04925).
For experiment [2], the target named is full-length PrP (PrP23–231) (mouse) (UniProt P04925).
The target in experiment [3] is N-terminally truncated human PrP90–231 (human) (UniProt P04156).
Experiment [4] concerns the target N-terminal human PrP fragment (PrP23–145) (human) (UniProt P04156).

“Quiescin-sulfhydryl oxidase (from UniProt O00391 30-747) (enzyme)”: the dissociation constant Kd (usually the free concentration of one partner at which half of the binding sites on the other are occupied at equilibrium, for simple one-to-one binding) in experiment [1] amounted to 312 nM; in experiment [2] it was 2 nM; in experiment [3], 771 nM; in experiment [4], 3.6 nM.
